Experimental data from patent US8147838B2, “Peptide” (priority 2005, dated 2012).

target: MHC class I allele B*0702 (B7) (Homo sapiens, UniProt P01889); assay: iTopia peptide binding assay, B*0702; settings: percent of positive control peptide binding; peptide at 1.11×10^−5M
Procedure: (§1) The 9 mers were tested for Peptide Binding, Off Rate and Affinity using iTopia Epitope Discovery System in accordance with the manufacturer's instructions. Briefly, 96 well microtitre plates coated with MHC molecules representing different MHC alleles are used to identify candidate peptides. […] Determinations are performed in duplicate using an ELISA plate reader and included allele specific positive controls.
(§2) i) Peptide Binding—This assay measures the ability of individual peptides to bind to the MHC molecules under standardized optimal binding conditions. The assay is performed for all the test peptides across the selected MHC alleles. The test peptides identified as “binders” are characterized further in terms of affinity and dissociation experiments.
(§3) Following a period of binding under optimal conditions, excess antibody is removed and a measurement of total fluorescence taken (D).
(§4) The binding of the test peptides to the MHC molecules was performed at 1.11×10^−5M of peptide under optimal, standardised test conditions. A control peptide was run in parallel on the same plate and at the same concentration as the test peptides.
(§5) The level of binding is expressed as a percent of positive control peptide binding for each allele.

Sequence | Peptide binding, MHC Class I Molecule B*0702
LKETEVVQG [Peptide 155] | 3 % of control
LNLSGSRLD [Peptide 62] | 7 % of control
LNSADLDCD [Peptide 169] | 0 % of control
LPSLRHLDL [Peptide 117] | 96 % of control
LPSLRQLDL [Peptide 71] | 82 % of control
LTCAYPEKM [Peptide 161] | 5 % of control
MRNRVLLEL [Peptide 165] | 13 % of control
NGTLAELQG [Peptide 138] | 0 % of control
NHIVPPEDE [Peptide 91] | 5 % of control
NNPWVCDCH [Peptide 147] | 4 % of control
NNSLVSLTY [Peptide 122] | 0 % of control
NRNLTEVPT [Peptide 40] | 5 % of control
PAAGDGRLR [Peptide 5] | 5 % of control
PAGAFARRP [Peptide 54] | 7 % of control
PALCECSEA [Peptide 32] | 0 % of control
PDQCPALCE [Peptide 30] | 1 % of control
PFAFSGSNA [Peptide 80] | 7 % of control
PHIRVFLDN [Peptide 143] | 10 % of control
PPEDERQNR [Peptide 93] | 0 % of control
PRLTNLSSN [Peptide 205] | 11 % of control
PWVCDCHMA [Peptide 148] | 0 % of control
QCPALCECS [Peptide 31] | 0 % of control
QPPLPDQCP [Peptide 28] | 3 % of control
RDHMEGYHY [Peptide 197] | 5 % of control
RDVLAQLPS [Peptide 114] | 4 % of control
RQLDLSHNP [Peptide 73] | 4 % of control
RRLELASNH [Peptide 107] | 3 % of control
RRPPLAELA [Peptide 57] | 9 % of control
RTVKCVNRN [Peptide 37] | 3 % of control
SADLDCDPI [Peptide 170] | 3 % of control

target: MHC class I allele A*0101 (A1) (Homo sapiens, UniProt P04439, A114D/A174V/A182V/D101N/D185E/E176A/E190D/L180R/Q94H/R68K/S129P/T187R/V100A/V91M/W191G); assay: iTopia peptide binding assay, A*0101; settings: percent of positive control peptide binding; peptide at 1.11×10^−5M
Procedure: as §1, §2, §3, §4, §5

Sequence | Peptide binding, MHC Class I Molecule A*0101
LKETEVVQG [Peptide 155] | 0 % of control
LNLSGSRLD [Peptide 62] | 2 % of control
LNSADLDCD [Peptide 169] | 0 % of control
LPSLRHLDL [Peptide 117] | 0 % of control
LPSLRQLDL [Peptide 71] | 0 % of control
LTCAYPEKM [Peptide 161] | 16 % of control
MRNRVLLEL [Peptide 165] | 0 % of control
NGTLAELQG [Peptide 138] | 3 % of control
NHIVPPEDE [Peptide 91] | 6 % of control
NNPWVCDCH [Peptide 147] | 0 % of control
NNSLVSLTY [Peptide 122] | 8 % of control
NRNLTEVPT [Peptide 40] | 1 % of control
PAAGDGRLR [Peptide 5] | 4 % of control
PAGAFARRP [Peptide 54] | 2 % of control
PALCECSEA [Peptide 32] | 4 % of control
PDQCPALCE [Peptide 30] | 5 % of control
PFAFSGSNA [Peptide 80] | 0 % of control
PHIRVFLDN [Peptide 143] | 0 % of control
PPEDERQNR [Peptide 93] | 0 % of control
PRLTNLSSN [Peptide 205] | 2 % of control
PWVCDCHMA [Peptide 148] | 0 % of control
QCPALCECS [Peptide 31] | 3 % of control
QPPLPDQCP [Peptide 28] | 6 % of control
RDHMEGYHY [Peptide 197] | 11 % of control
RDVLAQLPS [Peptide 114] | 1 % of control
RQLDLSHNP [Peptide 73] | 2 % of control
RRLELASNH [Peptide 107] | 0 % of control
RRPPLAELA [Peptide 57] | 2 % of control
RTVKCVNRN [Peptide 37] | 7 % of control
SADLDCDPI [Peptide 170] | 0 % of control

target: MHC class I allele A*0301 (A3) (Homo sapiens, UniProt P04439); assay: iTopia peptide binding assay, A*0301; settings: percent of positive control peptide binding; peptide at 1.11×10^−5M
Procedure: as §1, §2, §3, §4, §5

Sequence | Peptide binding, MHC Class I Molecule A*0301
LKETEVVQG [Peptide 155] | 4 % of control
LNLSGSRLD [Peptide 62] | 2 % of control
LNSADLDCD [Peptide 169] | 3 % of control
LPSLRHLDL [Peptide 117] | 1 % of control
LPSLRQLDL [Peptide 71] | 0 % of control
LTCAYPEKM [Peptide 161] | 8 % of control
MRNRVLLEL [Peptide 165] | 4 % of control
NGTLAELQG [Peptide 138] | 3 % of control
NHIVPPEDE [Peptide 91] | 3 % of control
NNPWVCDCH [Peptide 147] | 16 % of control
NNSLVSLTY [Peptide 122] | 4 % of control
NRNLTEVPT [Peptide 40] | 0 % of control
PAAGDGRLR [Peptide 5] | 4 % of control
PAGAFARRP [Peptide 54] | 3 % of control
PALCECSEA [Peptide 32] | 0 % of control
PDQCPALCE [Peptide 30] | 0 % of control
PFAFSGSNA [Peptide 80] | 3 % of control
PHIRVFLDN [Peptide 143] | 3 % of control
PPEDERQNR [Peptide 93] | 0 % of control
PRLTNLSSN [Peptide 205] | 2 % of control
PWVCDCHMA [Peptide 148] | 0 % of control
QCPALCECS [Peptide 31] | 0 % of control
QPPLPDQCP [Peptide 28] | 1 % of control
RDHMEGYHY [Peptide 197] | 3 % of control
RDVLAQLPS [Peptide 114] | 3 % of control
RQLDLSHNP [Peptide 73] | 2 % of control
RRLELASNH [Peptide 107] | 3 % of control
RRPPLAELA [Peptide 57] | 2 % of control
RTVKCVNRN [Peptide 37] | 12 % of control
SADLDCDPI [Peptide 170] | 4 % of control

target: MHC class I allele A*0201 (A2) (Homo sapiens, UniProt P04439, D140Y/D185E/D98H/E176V/E277Q/G131W/G231S/I119V/I121R/I166T/I218V/L300P/L318F/N151K/N90K/P208A/P217A/Q86G/Q94H/R138H/R169H/T345S); assay: iTopia peptide binding assay, A*0201; settings: percent of positive control peptide binding; peptide at 1.11×10^−5M
Procedure: as §1, §2, §3, §4, §5

Sequence | Peptide binding, MHC Class I Molecule A*0201
LKETEVVQG [Peptide 155] | 3 % of control
LNLSGSRLD [Peptide 62] | 7 % of control
LNSADLDCD [Peptide 169] | 0 % of control
LPSLRHLDL [Peptide 117] | 16 % of control
LPSLRQLDL [Peptide 71] | 27 % of control
LTCAYPEKM [Peptide 161] | 40 % of control
MRNRVLLEL [Peptide 165] | 6 % of control
NGTLAELQG [Peptide 138] | 9 % of control
NHIVPPEDE [Peptide 91] | 11 % of control
NNPWVCDCH [Peptide 147] | 0 % of control
NNSLVSLTY [Peptide 122] | 12 % of control
NRNLTEVPT [Peptide 40] | 6 % of control
PAAGDGRLR [Peptide 5] | 5 % of control
PAGAFARRP [Peptide 54] | 4 % of control
PALCECSEA [Peptide 32] | 19 % of control
PDQCPALCE [Peptide 30] | 3 % of control
PFAFSGSNA [Peptide 80] | 13 % of control
PHIRVFLDN [Peptide 143] | 2 % of control
PPEDERQNR [Peptide 93] | 2 % of control
PRLTNLSSN [Peptide 205] | 8 % of control
PWVCDCHMA [Peptide 148] | 0 % of control
QCPALCECS [Peptide 31] | 2 % of control
QPPLPDQCP [Peptide 28] | 5 % of control
RDHMEGYHY [Peptide 197] | 6 % of control
RDVLAQLPS [Peptide 114] | 15 % of control
RQLDLSHNP [Peptide 73] | 8 % of control
RRLELASNH [Peptide 107] | 5 % of control
RRPPLAELA [Peptide 57] | 11 % of control
RTVKCVNRN [Peptide 37] | 12 % of control
SADLDCDPI [Peptide 170] | 4 % of control
